In patent publication US20180353525A1 (SOCPRA SCIENCES SANT ET HUMAINES S E C, published 2018):

Key:
[1] = biological target: T1, receptor for activated C kinase (RACK1), endogenous, HT-1080 cells (human, UniProt P63244 1-317); assay: cell-based or functional assay
[2] = biological target: T1, receptor for activated C kinase …; assay: cell-based or functional assay; remark: listed apart in the source

| Binder | IC50 of doxorubicin, HT1080, MTT viability, C2WY→AA 0.25 µM, 1% O2 (Experiment 2) [1] [nM] | IC50 of doxorubicin, HT1080, MTT viability, C2WY→AA 0.25 µM, 21% O2 (Experiment 2) [1] [nM] | IC50 of doxorubicin, HT1080, MTT viability, C2WY→AA 20.0 µM, 1% O2 (Experiment 2) [1] [nM] | IC50 of doxorubicin, HT1080, MTT viability, C2WY→AA 20.0 µM, 21% O2 (Experiment 2) [1] [nM] | IC50 of doxorubicin, HT1080, MTT viability, C2WY→AA 0.25 µM, 1% O2 (Experiment 1) [2] [nM] | IC50 of doxorubicin, HT1080, MTT viability, C2WY→AA 0.25 µM, 21% O2 (Experiment 1) [2] [nM] | IC50 of doxorubicin, HT1080, MTT viability, C2WY→AA 5.00 µM, 1% O2 (Experiment 1) [2] [nM] | IC50 of doxorubicin, HT1080, MTT viability, C2WY→AA 5.00 µM, 21% O2 (Experiment 1) [2] [nM] | IC50 of doxorubicin, HT1080, MTT viability, C2 0.25 µM, 1% O2 (Experiment 2) [1] [nM] | IC50 of doxorubicin, HT1080, MTT viability, C2 0.25 µM, 21% O2 (Experiment 2) [1] [nM] | IC50 of doxorubicin, HT1080, MTT viability, C2 20.0 µM, 1% O2 (Experiment 2) [1] [nM] | IC50 of doxorubicin, HT1080, MTT viability, C2 20.0 µM, 21% O2 (Experiment 2) [1] [nM] | IC50 of doxorubicin, HT1080, MTT viability, C2 0.25 µM, 1% O2 (Experiment 1) [2] [nM] | IC50 of doxorubicin, HT1080, MTT viability, C2 0.25 µM, 21% O2 (Experiment 1) [2] [nM] | IC50 of doxorubicin, HT1080, MTT viability, C2 5.00 µM, 1% O2 (Experiment 1) [2] [nM] | IC50 of doxorubicin, HT1080, MTT viability, C2 5.00 µM, 21% O2 (Experiment 1) [2] [nM] |
| --- | --- | --- | --- | --- | --- | --- | --- | --- | --- | --- | --- | --- | --- | --- | --- | --- |
| RMAANFDHNY [C2WY→AA peptide (RMAANFDHNY)] | 98.9 | 12.5 | 74.3 | 10.9 | 99.1 | 21.3 | 76.4 | 16.4 |  |  |  |  |  |  |  |  |
| RMWYNFDHNY [C2 peptide (RMWYNFDHNY)] |  |  |  |  |  |  |  |  | 30.6 | 11.7 | 15.7 | 10 | 39.7 | 12.2 | 39.1 | 17.2 |
